Literature values, collected in PMC5114699.

Target: Glu148 (UniProt position 148, MVLGREGPTVQ)

## ClC-ec1 Cl-/H+ antiporter (H(+)/Cl(-) exchange transporter ClcA) (Escherichia coli)
  pKa: 6.2
